Measured values from paper PMC2894858 (PLoS ONE, 2010).
Non-standard residues stand in square brackets, D forms with d. No end group written: not given here. Aib = CC(C)(N)C(=O)O

Molecular target: botulinum neurotoxin serotype A light chain (Clostridium botulinum, UniProt P0DPI1 1-420)
Test: HPLC-based protease inhibition assay (Dixon plots)
Settings: both partners purified

Chain of botulinum neurotoxin serotype A light chain (P0DPI1 1-420): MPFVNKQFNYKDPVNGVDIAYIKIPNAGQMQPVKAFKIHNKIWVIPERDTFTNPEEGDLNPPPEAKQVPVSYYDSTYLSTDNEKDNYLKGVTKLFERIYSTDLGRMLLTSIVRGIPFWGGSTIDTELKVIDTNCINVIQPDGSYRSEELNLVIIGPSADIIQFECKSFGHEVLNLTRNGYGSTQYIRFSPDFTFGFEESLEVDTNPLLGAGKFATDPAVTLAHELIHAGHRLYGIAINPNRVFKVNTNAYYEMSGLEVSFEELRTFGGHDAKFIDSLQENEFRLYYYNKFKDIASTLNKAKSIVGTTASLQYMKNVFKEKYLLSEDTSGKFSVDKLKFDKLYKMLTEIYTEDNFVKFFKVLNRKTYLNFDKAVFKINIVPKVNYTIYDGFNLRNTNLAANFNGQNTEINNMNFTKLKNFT

For RRF[Aib]AML-NH2 [JTH-NB72-39], the Ki was 638 nM.

In the case of RRW[Aib]AML-NH2 (not fully specified) [JTH-NB72-38], the Ki is reported as 990 nM.
